Results as given in paper PMC9482650, “Quantitative fragmentomics allow affinity mapping of interactomes” (Nature Communications, 2022).

T1: MPDZ_2, O75970
T1 sequence (O75970 252-347, limits assumed, looked up): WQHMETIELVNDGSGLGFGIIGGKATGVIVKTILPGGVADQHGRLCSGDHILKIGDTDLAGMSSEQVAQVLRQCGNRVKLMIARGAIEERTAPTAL

T2: PDZD7_1, Q9H5P4
T2 sequence (Q9H5P4 81-178, limits assumed, looked up): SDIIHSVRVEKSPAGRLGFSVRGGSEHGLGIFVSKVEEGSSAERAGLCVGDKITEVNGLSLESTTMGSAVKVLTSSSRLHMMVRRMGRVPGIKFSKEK

T3: MPDZ_13, O75970
T3 sequence (O75970 1982-2070, limits assumed, looked up): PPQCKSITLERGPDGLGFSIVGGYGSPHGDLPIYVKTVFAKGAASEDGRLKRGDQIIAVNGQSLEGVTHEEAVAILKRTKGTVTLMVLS

T4: PREX2_2, Q70Z35
T4 sequence (Q70Z35 672-764, limits assumed, looked up): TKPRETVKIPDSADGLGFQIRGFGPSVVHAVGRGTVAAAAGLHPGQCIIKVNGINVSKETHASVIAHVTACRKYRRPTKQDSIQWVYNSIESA

T5: PDZD11, Q5EBL8
T5 sequence (Q5EBL8 42-139, limits assumed, looked up): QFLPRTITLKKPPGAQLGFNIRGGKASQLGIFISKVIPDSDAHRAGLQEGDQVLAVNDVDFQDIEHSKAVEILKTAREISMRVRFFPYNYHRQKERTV

T6: SNTB2, Q13425
T6 sequence (Q13425 110-208, limits assumed, looked up): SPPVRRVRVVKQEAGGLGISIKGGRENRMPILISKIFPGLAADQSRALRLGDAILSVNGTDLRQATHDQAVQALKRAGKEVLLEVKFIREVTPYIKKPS

T7: PARD6B, Q9BYG5
T7 sequence (Q9BYG5 152-260, limits assumed, looked up): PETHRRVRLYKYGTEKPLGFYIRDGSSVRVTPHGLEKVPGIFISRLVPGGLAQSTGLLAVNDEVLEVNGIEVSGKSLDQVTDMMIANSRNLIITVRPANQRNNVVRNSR

T8: PDZD2_5, O15018
T8 sequence (O15018 2617-2716, limits assumed, looked up): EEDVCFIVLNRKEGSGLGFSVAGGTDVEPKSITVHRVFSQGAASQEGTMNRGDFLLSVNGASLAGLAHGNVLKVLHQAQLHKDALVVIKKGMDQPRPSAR

T9: PDZD8, Q8NEN9
T9 sequence (Q8NEN9 361-459, limits assumed, looked up): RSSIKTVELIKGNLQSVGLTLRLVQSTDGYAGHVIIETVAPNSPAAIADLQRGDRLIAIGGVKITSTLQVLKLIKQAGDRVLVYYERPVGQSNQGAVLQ

T10: USH1C_3, Q9Y6N9
T10 sequence (Q9Y6N9 447-547, limits assumed, looked up): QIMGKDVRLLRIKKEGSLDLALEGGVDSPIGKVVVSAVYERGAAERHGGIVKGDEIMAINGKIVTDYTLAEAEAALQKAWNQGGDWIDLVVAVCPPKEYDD

T11: PDZD2_6, O15018
T11 sequence (O15018 2745-2839, limits assumed, looked up): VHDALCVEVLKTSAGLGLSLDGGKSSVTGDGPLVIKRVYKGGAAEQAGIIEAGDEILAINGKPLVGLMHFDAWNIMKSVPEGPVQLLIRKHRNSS

T12: MPP5, Q8N3R9
T12 sequence (Q8N3R9 251-346, limits assumed, looked up): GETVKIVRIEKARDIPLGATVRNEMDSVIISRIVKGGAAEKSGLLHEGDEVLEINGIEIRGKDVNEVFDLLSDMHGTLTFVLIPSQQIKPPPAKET

B1: KIR3DL3, Q8N743 (peptide)
chain: PKTPPTDTSV
B2: TJP2, Q9UDY2 (peptide)
chain: QSARYRDTEL
B3: ABCC4, O15439 (peptide)
chain: STLTIFETAL

Molecular target: T1, MPDZ_2, O75970
Assay: holdup assay
Set-up: key: below the threshold = too weak to quantify, mostly under pKd 3.1 to 4
Conditions: plain residues with an end cap or a label only (N-terminal biotin on a linker: ttds)

Binder	pKd
B1	below the threshold
B2	below the threshold
B3	below the threshold

Molecular target: T2, PDZD7_1, Q9H5P4
Assay: holdup assay
Set-up: key: below the threshold = too weak to quantify, mostly under pKd 3.1 to 4
Conditions: plain residues with an end cap or a label only (N-terminal biotin on a linker: ttds)

Binder	pKd
B1	below the threshold
B2	below the threshold
B3	4.25

Molecular target: O60759
Assay: holdup assay
Set-up: key: below the threshold = too weak to quantify, mostly under pKd 3.1 to 4
Conditions: plain residues with an end cap or a label only (N-terminal biotin on a linker: ttds)

Binder	pKd
B1	below the threshold
B2	below the threshold
B3	below the threshold

Molecular target: Q9UDY2
Assay: holdup assay
Set-up: key: below the threshold = too weak to quantify, mostly under pKd 3.1 to 4
Conditions: plain residues with an end cap or a label only (N-terminal biotin on a linker: ttds)

Binder	pKd
B1	below the threshold
B2	below the threshold
B3	below the threshold

Molecular target: Q96SB3
Assay: holdup assay
Set-up: key: below the threshold = too weak to quantify, mostly under pKd 3.1 to 4
Conditions: plain residues with an end cap or a label only (N-terminal biotin on a linker: ttds)

Binder	pKd
B1	below the threshold
B2	below the threshold
B3	below the threshold

Molecular target: DLG5_2, Q8TDM6
Assay: holdup assay
Set-up: key: below the threshold = too weak to quantify, mostly under pKd 3.1 to 4
Conditions: plain residues with an end cap or a label only (N-terminal biotin on a linker: ttds)

Chain of DLG5_2, Q8TDM6 (Q8TDM6 714-800): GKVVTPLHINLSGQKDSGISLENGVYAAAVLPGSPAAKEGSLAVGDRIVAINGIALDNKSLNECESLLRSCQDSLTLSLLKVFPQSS

Binder	pKd
B1	below the threshold
B2	below the threshold
B3	below the threshold

Molecular target: O00233
Assay: holdup assay
Set-up: key: below the threshold = too weak to quantify, mostly under pKd 3.1 to 4
Conditions: plain residues with an end cap or a label only (N-terminal biotin on a linker: ttds)

Binder	pKd
B1	below the threshold
B2	below the threshold
B3	below the threshold

Molecular target: T3, MPDZ_13, O75970
Assay: holdup assay
Set-up: key: below the threshold = too weak to quantify, mostly under pKd 3.1 to 4
Conditions: plain residues with an end cap or a label only (N-terminal biotin on a linker: ttds)

Binder	pKd
B1	below the threshold
B2	below the threshold
B3	below the threshold

Molecular target: T4, PREX2_2, Q70Z35
Assay: holdup assay
Set-up: key: below the threshold = too weak to quantify, mostly under pKd 3.1 to 4
Conditions: plain residues with an end cap or a label only (N-terminal biotin on a linker: ttds)

Binder	pKd
B1	below the threshold
B2	below the threshold
B3	below the threshold

Molecular target: NHERF2_1, Q15599
Assay: holdup assay
Set-up: key: below the threshold = too weak to quantify, mostly under pKd 3.1 to 4
Conditions: plain residues with an end cap or a label only (N-terminal biotin on a linker: ttds)

Chain of NHERF2_1, Q15599 (Q15599 9-91): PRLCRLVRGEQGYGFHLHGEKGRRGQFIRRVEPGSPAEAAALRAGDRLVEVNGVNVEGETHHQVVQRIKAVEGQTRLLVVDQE

Binder	pKd
B1	below the threshold
B2	below the threshold
B3	4.83

Molecular target: T5, PDZD11, Q5EBL8
Assay: holdup assay
Set-up: key: below the threshold = too weak to quantify, mostly under pKd 3.1 to 4
Conditions: plain residues with an end cap or a label only (N-terminal biotin on a linker: ttds)

Binder	pKd
B1	4.3
B2	below the threshold
B3	4.46

Molecular target: SDCBP_1, O00560
Assay: holdup assay
Set-up: key: below the threshold = too weak to quantify, mostly under pKd 3.1 to 4
Conditions: plain residues with an end cap or a label only (N-terminal biotin on a linker: ttds)

Chain of SDCBP_1, O00560 (O00560 111-198): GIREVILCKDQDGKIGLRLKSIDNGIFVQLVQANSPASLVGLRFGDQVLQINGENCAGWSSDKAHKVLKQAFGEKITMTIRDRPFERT

Binder	pKd
B1	below the threshold
B2	below the threshold
B3	below the threshold

Molecular target: T6, SNTB2, Q13425
Assay: holdup assay
Set-up: key: below the threshold = too weak to quantify, mostly under pKd 3.1 to 4
Conditions: plain residues with an end cap or a label only (N-terminal biotin on a linker: ttds)

Binder	pKd
B1	below the threshold
B2	below the threshold
B3	4.49

Molecular target: T7, PARD6B, Q9BYG5
Assay: holdup assay
Set-up: key: below the threshold = too weak to quantify, mostly under pKd 3.1 to 4
Conditions: plain residues with an end cap or a label only (N-terminal biotin on a linker: ttds)

Binder	pKd
B1	below the threshold
B2	below the threshold
B3	below the threshold

Molecular target: CARD14, Q9BXL6
Assay: holdup assay
Set-up: key: below the threshold = too weak to quantify, mostly under pKd 3.1 to 4
Conditions: plain residues with an end cap or a label only (N-terminal biotin on a linker: ttds)

Chain of CARD14, Q9BXL6 (Q9BXL6 558-663): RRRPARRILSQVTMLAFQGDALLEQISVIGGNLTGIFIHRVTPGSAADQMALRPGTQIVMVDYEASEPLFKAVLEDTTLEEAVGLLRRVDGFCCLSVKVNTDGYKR

Binder	pKd
B1	below the threshold
B2	below the threshold
B3	below the threshold

Molecular target: PDLIM4, P50479
Assay: holdup assay
Set-up: key: below the threshold = too weak to quantify, mostly under pKd 3.1 to 4
Conditions: plain residues with an end cap or a label only (N-terminal biotin on a linker: ttds)

Chain of PDLIM4, P50479 (P50479 1-83): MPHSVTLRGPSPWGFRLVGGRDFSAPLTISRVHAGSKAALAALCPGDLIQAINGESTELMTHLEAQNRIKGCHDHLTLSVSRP

Binder	pKd
B1	below the threshold
B2	below the threshold
B3	below the threshold

Molecular target: O43166
Assay: holdup assay
Set-up: key: below the threshold = too weak to quantify, mostly under pKd 3.1 to 4
Conditions: plain residues with an end cap or a label only (N-terminal biotin on a linker: ttds)

Binder	pKd
B1	below the threshold
B2	below the threshold
B3	below the threshold

Molecular target: AHNAK2, Q8IVF2
Assay: holdup assay
Set-up: key: below the threshold = too weak to quantify, mostly under pKd 3.1 to 4
Conditions: plain residues with an end cap or a label only (N-terminal biotin on a linker: ttds)

Chain of AHNAK2, Q8IVF2 (Q8IVF2 108-193): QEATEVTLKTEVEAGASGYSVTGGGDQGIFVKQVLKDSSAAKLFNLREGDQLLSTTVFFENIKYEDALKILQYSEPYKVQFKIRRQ

Binder	pKd
B1	below the threshold
B2	below the threshold
B3	below the threshold

Molecular target: T8, PDZD2_5, O15018
Assay: holdup assay
Set-up: key: below the threshold = too weak to quantify, mostly under pKd 3.1 to 4
Conditions: plain residues with an end cap or a label only (N-terminal biotin on a linker: ttds)

Binder	pKd
B1	below the threshold
B2	below the threshold
B3	below the threshold

Molecular target: LMO7, Q8WWI1
Assay: holdup assay
Set-up: key: below the threshold = too weak to quantify, mostly under pKd 3.1 to 4
Conditions: plain residues with an end cap or a label only (N-terminal biotin on a linker: ttds)

Chain of LMO7, Q8WWI1 (Q8WWI1 1037-1138): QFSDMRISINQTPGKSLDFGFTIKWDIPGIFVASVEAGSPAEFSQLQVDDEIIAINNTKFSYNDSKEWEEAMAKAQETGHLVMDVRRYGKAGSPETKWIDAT

Binder	pKd
B1	below the threshold
B2	below the threshold
B3	below the threshold

Molecular target: T9, PDZD8, Q8NEN9
Assay: holdup assay
Set-up: key: below the threshold = too weak to quantify, mostly under pKd 3.1 to 4
Conditions: plain residues with an end cap or a label only (N-terminal biotin on a linker: ttds)

Binder	pKd
B1	4.36
B2	below the threshold
B3	below the threshold

Molecular target: T10, USH1C_3, Q9Y6N9
Assay: holdup assay
Set-up: key: below the threshold = too weak to quantify, mostly under pKd 3.1 to 4
Conditions: plain residues with an end cap or a label only (N-terminal biotin on a linker: ttds)

Binder	pKd
B1	below the threshold
B2	below the threshold
B3	below the threshold

Molecular target: Q9NR12
Assay: holdup assay
Set-up: key: below the threshold = too weak to quantify, mostly under pKd 3.1 to 4
Conditions: plain residues with an end cap or a label only (N-terminal biotin on a linker: ttds)

Binder	pKd
B1	below the threshold
B2	below the threshold
B3	below the threshold

Molecular target: T11, PDZD2_6, O15018
Assay: holdup assay
Set-up: key: below the threshold = too weak to quantify, mostly under pKd 3.1 to 4
Conditions: plain residues with an end cap or a label only (N-terminal biotin on a linker: ttds)

Binder	pKd
B1	below the threshold
B2	below the threshold
B3	below the threshold

Molecular target: MAGI1_6, Q96QZ7
Assay: holdup assay
Set-up: key: below the threshold = too weak to quantify, mostly under pKd 3.1 to 4
Conditions: plain residues with an end cap or a label only (N-terminal biotin on a linker: ttds)

Chain of MAGI1_6, Q96QZ7 (Q96QZ7 1146-1238): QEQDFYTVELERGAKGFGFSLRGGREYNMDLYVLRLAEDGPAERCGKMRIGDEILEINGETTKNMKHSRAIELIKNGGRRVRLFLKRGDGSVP

Binder	pKd
B1	4.22
B2	4.71
B3	4.22

Molecular target: Q5TCQ9
Assay: holdup assay
Set-up: key: below the threshold = too weak to quantify, mostly under pKd 3.1 to 4
Conditions: plain residues with an end cap or a label only (N-terminal biotin on a linker: ttds)

Binder	pKd
B1	below the threshold
B2	below the threshold
B3	below the threshold

Molecular target: T12, MPP5, Q8N3R9
Assay: holdup assay
Set-up: key: below the threshold = too weak to quantify, mostly under pKd 3.1 to 4
Conditions: plain residues with an end cap or a label only (N-terminal biotin on a linker: ttds)

Binder	pKd
B1	below the threshold
B2	below the threshold
B3	below the threshold
